From PMC8427864, “Optimizing operational parameters for the enzymatic production of furandicarboxylic acid building block” (Microbial Cell Factories, 2021)

Key:
[1] = target: T1, HMFO (hydroxymethylfurfural oxidase) WT (Methylovorus sp. MP688, UniProt E4QP00); test: UV-visible spectra of folded enzyme and heat-released flavin; type: binding; conditions: flavin released at 95 °C, 5 min
T1 construct: gene MPQ_0130; synthetic gene in pET23b(+), E. coli BL21(DE3)pLysS, purified by two anion-exchange steps; FAD-containing; no tag mentioned
T1 sequence (E4QP00 1-531): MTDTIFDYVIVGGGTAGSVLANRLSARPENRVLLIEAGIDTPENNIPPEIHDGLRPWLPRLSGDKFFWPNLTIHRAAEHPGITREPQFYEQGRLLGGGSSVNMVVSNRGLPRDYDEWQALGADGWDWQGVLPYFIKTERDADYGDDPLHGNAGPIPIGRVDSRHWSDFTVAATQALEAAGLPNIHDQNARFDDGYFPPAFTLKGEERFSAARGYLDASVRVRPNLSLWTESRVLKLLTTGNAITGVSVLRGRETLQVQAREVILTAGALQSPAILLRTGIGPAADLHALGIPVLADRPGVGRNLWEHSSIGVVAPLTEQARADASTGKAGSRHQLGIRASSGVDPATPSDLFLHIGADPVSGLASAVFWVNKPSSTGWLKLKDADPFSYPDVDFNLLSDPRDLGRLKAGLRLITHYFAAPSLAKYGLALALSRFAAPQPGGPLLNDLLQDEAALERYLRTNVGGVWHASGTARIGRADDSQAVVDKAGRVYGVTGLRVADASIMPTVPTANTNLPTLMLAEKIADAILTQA

O=Cc1ccc(CO)o1 [2] = system: T2, O=Cc1ccc(CO)o1; test: AmplexRed/HRP-coupled H2O2 assay, continuous steady state; type: biochemical, Methylovorus sp. MP688; conditions: 50 mM Tris/HCl, pH 7.0, air oxygen as co-substrate, 8BxHMFO (Methods print G356K)
T2 construct: synthetic gene in pET23b(+), E. coli BL21(DE3)pLysS, purified by two anion-exchange steps; FAD-containing; no tag mentioned

O=Cc1ccc(C=O)o1 = system: T3, O=Cc1ccc(C=O)o1; test: as above; type: biochemical, Methylovorus sp. MP688; conditions: 50 mM Tris/HCl, pH 7.0, air oxygen as co-substrate
T3 construct: synthetic gene in pET23b(+), E. coli BL21(DE3)pLysS, purified by two anion-exchange steps; FAD-containing; no tag mentioned
From the text: (§1) AmplexRed/HRP-coupled H2O2 assay, continuous steady state on HMFO (hydroxymethylfurfural oxidase) WT | The saturation profiles for all the variants discarded any inhibitory effect by these two substrates

O=Cc1ccc(CO)o1 [3] = system: T2, O=Cc1ccc(CO)o1; test: as above; type: biochemical, Methylovorus sp. MP688; conditions: 50 mM Tris/HCl, pH 7.0, air oxygen as co-substrate
From the text: as §1

Cc1cc2nc3c(=O)[nH]c(=O)nc-3n(C[C@H](O)[C@H](O)[C@H](O)COP(=O)(O)OP(=O)(O)OC[C@H]3O[C@@H](n4cnc5c(N)ncnc54)[C@H](O)[C@@H]3O)c2cc1C [FAD]
UV-visible spectra of folded enzyme and heat-released flavin [1]: The spectra of the folded enzymes and the free flavin, obtained by heat treatment

HMFO (hydroxymethylfurfural oxidase) WT (Methylovorus sp. MP688; A419Y/A435E/G356H/H74Y/I73V/T414K/V367R/W466F)
Km (O=Cc1ccc(CO)o1 [2]): 17.1 ± 1.6 mM | kcat (O=Cc1ccc(CO)o1 [2]): 0.09 ± 0.0033 s⁻¹

HMFO (hydroxymethylfurfural oxidase) WT (Methylovorus sp. MP688; V367R)
Km (O=Cc1ccc(C=O)o1): 1.1 ± 0.2 mM | kcat (O=Cc1ccc(C=O)o1): 0.0367 ± 0.0017 s⁻¹ | Km (O=Cc1ccc(CO)o1 [3]): 4.2 ± 0.3 mM | kcat (O=Cc1ccc(CO)o1 [3]): 0.747 ± 0.0167 s⁻¹

HMFO (hydroxymethylfurfural oxidase) WT (Methylovorus sp. MP688; V367R/W466F)
Km (O=Cc1ccc(C=O)o1): 4.9 ± 0.5 mM | kcat (O=Cc1ccc(C=O)o1): 0.025 ± 0.00067 s⁻¹ | Km (O=Cc1ccc(CO)o1 [3]): 23.1 ± 2.8 mM | kcat (O=Cc1ccc(CO)o1 [3]): 0.0567 ± 0.0033 s⁻¹

HMFO (hydroxymethylfurfural oxidase) WT (Methylovorus sp. MP688; W466F)
Km (O=Cc1ccc(C=O)o1): 1.8 ± 0.3 mM | kcat (O=Cc1ccc(C=O)o1): 0.005 ± 0.00017 s⁻¹ | Km (O=Cc1ccc(CO)o1 [3]): 6.4 ± 0.5 mM | kcat (O=Cc1ccc(CO)o1 [3]): 0.0233 ± 0.0005 s⁻¹
